# Results as given in paper PMC11387445, “L-Lactate dehydrogenase from Cyanidioschyzon merolae shows high catalytic efficiency for pyruvate reduction and is inhibited by ATP” (Plant Molecular Biology, 2024).
# B1: CmLDH1 (Cyanidioschyzon merolae strain 10D) (protein)
# chain: MTSGIDEAAAELQGSLFGEVSPAIDSPGAALARSYPVRITVVGAGDVGVACAYNILTRDICSELVLVDVLKDKLKGQVMDLQHGGAFYSTRIRAAESYEDTAHSAVCIITAGVRQRPGESRLELMDRNAALFKGIIPPLVQYSPNTILLVVSNPVDLLTHLAWQMSGLPRERVIGSGTYLDSSRFRTLLAQRLGIDTASVQAMVLGEHGDSSFVYRSGITVGGVPLRTCFERMTDAASASTAFYDLVKGVHQQVVAAAYEVIKLKGYTNWAIGSAVGSIVTTIVHDRRKVLPITTHAGSLRGLESADVFLSLPCVLGRNGVVEVLQILPFMESDEKEDLQSSIEALQSTPKKAS
# notes: full length, 354 residues; E. coli BL21(DE3)
# How the values were obtained:
# CmLDH1 [1] = target: T1, CmLDH1 (Cyanidioschyzon merolae, UniProt M1V6D8); assay: NADH oxidation at […] nm, relative activity; assay type: biochemical; settings: inhibition, 0.20 mM pyruvate, 0.05 mM NADH, pH 7.0, 57 °C
# T1 construct: gene CYME_CMA145C; full length, 354 residues; E. coli BL21(DE3)
# T1 sequence (M1V6D8 1-354): B1 chain
# CmLDH1 [2] = target: T1, CmLDH1; assay: NADH oxidation at […] nm, relative activity; assay type: biochemical; settings: activation; 5 mM FBP, 0.20 mM pyruvate, 0.05 mM NADH, pH 7.0, 57 °C
# purified protein [3] = substrate: NC(=O)C1=CN([C@@H]2O[C@H](COP(=O)(O)OP(=O)(O)OC[C@H]3O[C@@H](n4cnc5c(N)ncnc54)[C@H](O)[C@@H]3O)[C@@H](O)[C@H]2O)C=CC1; assay: purified protein; assay type: biochemical, Cyanidioschyzon merolae; settings: 2 mM sodium pyruvate, pH 4.5 (optimum), 57 °C, no effector
# purified protein [4] = substrate: CC(=O)C(=O)O; assay: purified protein; assay type: biochemical, Cyanidioschyzon merolae; settings: 0.15 mM NADH, pH 4.5 (optimum), 57 °C, no effector
molecule,measurement,setting,value
Nc1ncnc2c1ncn2[C@@H]1O[C@H](COP(=O)(O)OP(=O)(O)O)[C@@H](O)[C@H]1O [ADP],relative activity,CmLDH1 [1],ATP and ADP (particularly ATP) decreased CmLDH1 activity
Nc1ncnc2c1ncn2[C@@H]1O[C@H](COP(=O)(O)OP(=O)(O)OP(=O)(O)O)[C@@H](O)[C@H]1O [ATP],relative activity,CmLDH1 [1]; mixed inhibitor for NADH,ATP and ADP (particularly ATP) decreased CmLDH1 activity
O=P(O)(O)OC[C@H]1OC(O)(COP(=O)(O)O)[C@@H](O)[C@@H]1O (stereo partly drawn) [FBP],relative activity at 5 mM,CmLDH1 [2],1.2 fold
B1,K0.5,purified protein [3],0.011 ± 0.0006 mM
same,kcat,purified protein [3],324 ± 6 s⁻¹
same,kcat/Km,purified protein [3],2.95e+07 ± 1.05e+06 M⁻¹ s⁻¹
same,K0.5,purified protein [4],0.13 ± 0.005 mM
same,kcat,purified protein [4],314 ± 3 s⁻¹
same,kcat/Km,purified protein [4],2.46e+06 ± 75000 M⁻¹ s⁻¹
